Changes are numbered by the printed parent chain.
T1: MERS full length Spike (MERS-CoV, UniProt K9N5Q8 18-1291)
T1 sequence: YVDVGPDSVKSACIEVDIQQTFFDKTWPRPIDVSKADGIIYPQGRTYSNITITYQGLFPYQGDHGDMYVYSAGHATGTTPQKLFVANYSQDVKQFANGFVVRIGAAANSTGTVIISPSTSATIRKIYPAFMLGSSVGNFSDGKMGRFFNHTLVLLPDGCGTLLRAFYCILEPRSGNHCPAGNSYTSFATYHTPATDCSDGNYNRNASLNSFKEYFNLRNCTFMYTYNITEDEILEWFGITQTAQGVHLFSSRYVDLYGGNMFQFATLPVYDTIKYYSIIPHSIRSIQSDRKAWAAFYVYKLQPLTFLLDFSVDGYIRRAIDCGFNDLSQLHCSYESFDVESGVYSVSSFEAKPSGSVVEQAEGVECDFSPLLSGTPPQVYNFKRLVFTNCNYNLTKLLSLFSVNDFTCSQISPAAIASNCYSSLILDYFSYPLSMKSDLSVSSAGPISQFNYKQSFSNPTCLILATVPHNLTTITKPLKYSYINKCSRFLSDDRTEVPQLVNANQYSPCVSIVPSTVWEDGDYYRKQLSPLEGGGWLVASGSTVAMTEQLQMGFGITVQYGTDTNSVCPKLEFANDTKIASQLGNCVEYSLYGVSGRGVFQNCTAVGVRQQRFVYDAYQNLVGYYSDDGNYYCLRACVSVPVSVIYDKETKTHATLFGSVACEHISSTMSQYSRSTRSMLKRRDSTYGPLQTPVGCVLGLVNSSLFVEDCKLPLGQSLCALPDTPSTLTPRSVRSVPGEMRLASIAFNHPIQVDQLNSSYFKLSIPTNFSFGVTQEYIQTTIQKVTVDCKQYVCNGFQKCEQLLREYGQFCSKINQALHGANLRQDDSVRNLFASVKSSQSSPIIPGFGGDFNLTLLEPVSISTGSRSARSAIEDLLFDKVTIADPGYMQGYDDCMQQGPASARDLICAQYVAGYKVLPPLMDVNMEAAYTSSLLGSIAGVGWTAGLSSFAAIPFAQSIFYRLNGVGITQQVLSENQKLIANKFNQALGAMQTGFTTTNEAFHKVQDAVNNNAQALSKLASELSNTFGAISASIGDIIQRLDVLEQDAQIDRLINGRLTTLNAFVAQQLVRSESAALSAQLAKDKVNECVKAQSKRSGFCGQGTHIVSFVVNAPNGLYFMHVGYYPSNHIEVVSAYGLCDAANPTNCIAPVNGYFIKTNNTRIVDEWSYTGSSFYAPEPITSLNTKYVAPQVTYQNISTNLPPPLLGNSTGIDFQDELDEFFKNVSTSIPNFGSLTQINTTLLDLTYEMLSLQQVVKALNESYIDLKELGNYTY

T2: HKU1 full length Spike (human coronavirus HKU1, UniProt Q5MQD0 13-1276)
T2 sequence: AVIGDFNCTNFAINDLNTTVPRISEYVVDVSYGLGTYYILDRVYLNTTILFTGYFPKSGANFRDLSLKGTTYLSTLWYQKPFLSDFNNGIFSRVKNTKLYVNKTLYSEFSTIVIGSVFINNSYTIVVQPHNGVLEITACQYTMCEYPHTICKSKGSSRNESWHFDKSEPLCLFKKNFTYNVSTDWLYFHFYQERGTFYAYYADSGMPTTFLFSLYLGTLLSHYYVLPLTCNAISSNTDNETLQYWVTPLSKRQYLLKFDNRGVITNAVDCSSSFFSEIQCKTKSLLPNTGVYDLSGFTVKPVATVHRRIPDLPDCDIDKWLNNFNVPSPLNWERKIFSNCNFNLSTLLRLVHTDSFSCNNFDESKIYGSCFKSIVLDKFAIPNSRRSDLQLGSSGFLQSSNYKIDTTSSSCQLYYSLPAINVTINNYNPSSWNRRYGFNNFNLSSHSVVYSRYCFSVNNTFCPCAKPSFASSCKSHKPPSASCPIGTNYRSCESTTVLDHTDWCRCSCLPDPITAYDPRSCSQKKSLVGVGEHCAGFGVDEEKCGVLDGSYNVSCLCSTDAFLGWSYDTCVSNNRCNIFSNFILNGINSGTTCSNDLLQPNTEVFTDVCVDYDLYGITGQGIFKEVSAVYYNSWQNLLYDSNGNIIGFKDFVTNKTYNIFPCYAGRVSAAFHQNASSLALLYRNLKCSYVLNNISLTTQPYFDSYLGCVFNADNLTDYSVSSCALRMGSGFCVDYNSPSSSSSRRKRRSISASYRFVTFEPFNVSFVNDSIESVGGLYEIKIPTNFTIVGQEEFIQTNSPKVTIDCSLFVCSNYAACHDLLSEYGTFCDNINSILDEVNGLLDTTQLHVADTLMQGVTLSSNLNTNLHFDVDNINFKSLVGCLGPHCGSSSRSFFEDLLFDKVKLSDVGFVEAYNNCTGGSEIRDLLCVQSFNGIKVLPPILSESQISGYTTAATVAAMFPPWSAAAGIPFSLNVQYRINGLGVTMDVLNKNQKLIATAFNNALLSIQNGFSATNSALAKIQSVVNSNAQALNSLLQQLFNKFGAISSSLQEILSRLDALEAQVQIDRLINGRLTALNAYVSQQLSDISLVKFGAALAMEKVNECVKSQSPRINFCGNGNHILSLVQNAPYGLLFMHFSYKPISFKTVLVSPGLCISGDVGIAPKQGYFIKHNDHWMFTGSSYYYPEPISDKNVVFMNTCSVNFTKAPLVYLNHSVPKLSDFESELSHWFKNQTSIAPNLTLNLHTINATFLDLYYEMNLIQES

B1: antibody 266 (antibody, V domains shown)
VH: QVQLVESGGGVVQPGRSLRLSCAASGFNLSNYAMHWVRQPSGKGLEWVSLISYDGSIKYYTDSVKGRFTVSGDNSKNTLFLQMNSLRPDDSALYYCVRGGVSGPNSFDMWGQGTTVTVSS
VL: DVVMTQSPLSLPVTLGQPASISCRSSQSLVYSDGNTYVNWFQQRPGQSPRRLIYQVSIRASGVPDRFSGSGSGTDFALKISRVEAEDVGVYYCMQGTHWPVTFGQGTKVEIK
B2: antibody 303 (antibody, V domains shown)
VH: B1 VH with N31S, P40A, T61A, T78M, P88A, S106A, M109I
VL: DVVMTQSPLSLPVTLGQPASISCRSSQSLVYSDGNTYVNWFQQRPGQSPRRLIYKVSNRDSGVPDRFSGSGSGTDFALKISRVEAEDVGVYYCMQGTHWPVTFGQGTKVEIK
B3: antibody 295 (antibody, V domains shown)
VH: QVQLQESGPGLVKPSQTLSLTCTVSGGSISSSDYYWSWIRQPPGKGLEWIGYIYYSGSTYYNPSLKSRVTISVDTSKNQFSLKLSSVTAADTAVYYCARVVGYCSSTSCYVDYWGQGTLVTVSS
VL: EIVLTQSPATLSLSPGERVTLSCRASQSVSSYLAWYQQKPGQAPRLLIYDASNRATGIPARFSGSGSGTDFTLTISSLEPEDFAVYYCQQRSNWPPGLTFGGGTKVEIK
B4: mAb 1495 (antibody, V domains shown)
VH: QVQLVESGGGVVQPGRSLRLSCTASGFTFSSYAMHWVRQAPGKGLEWVAVISYDGNNKYYGDSVKGRFTISRDNSKNTLYLQMNSLRAEDTAVYYCAKGADTPHYSGYHFLSVGYYFYGMDVWGQGTTVTVSS
VL: DIQMTQSPSSLSASVGDRVTITCRASQSISYYLNWYQQKPGKAPQLLIYAASSLQSGVPSRFSGSRSGTDFTLTISSLQPEDFATYYCQQSYSTPFTFGPGTKVDIKR
B5: mAb 1538 (antibody, V domains shown)
VH: EVQLLESGGGLVQPGGSLRLSCAASGFTFSSYAMSWVRQAPGKGLEWVSGISDSGGSTYYADYVKGRFTISRDNSKDTLYLQMNSLRAEDTAVYYCAKDRGNEYALTHYYYYAMDVWGQGTTVTVSS
VL: DIQMTQSPSSLSASVGDRVTITCRASQSISSYLNWYQQKPGKAPKLLIYAAYSLQSGVPSRFSGGGSGTDFTLTISSLQPEDFATYFCQQSYSTPITFGQGTRLEIKR
B6: antibody 301 (antibody, V domains shown)
VH: QVQLVQSGAEVKKPGASVKVSCKVSGYTLTELSMHWVRQAPGKGLEWMGGFDPEDGETIYAQKFQGRVTMTEDTSTDTAYMELSSLRSEDTAVYYCATAFCGGDCYPPDALDIWGQGTMVTVSS
VL: DIQMTQSPSSVSASVGDRVTITCRASQGISSWLAWYQQKPGKAPKLLIYAASSLQSGVPSRFSGSGSGTDFTLTISSLQPEDFATYYCQQANSFPLTFGGGTKVEIK
B7: antibody 300 (antibody, V domains shown)
VH: QVQLVESGGGVVQPGRSLTLSCAASGFTFSSYAMHWVRQAPGKGLEWVALISYDGNNKYYADSVKGRFTFSRDNSKNTLYLQMNSLRAEDTAVYYCARTNSGSYRTAFDYWGQGTLVTVSS
VL: DIQMTQSPSTLSASVGDRVTITCRASQSISIWLAWYQQKPGKAPKLLIYKASSLESGVPSRFSGSGSGTEFTLTISSLQPDDFATYYCQQYNSLWTFGQGTKVEIK
B8: mAb 1404 (antibody, V domains shown)
VH: QITLKESGPTLVKPTQTLTLTCTFSGFSLSISGVGVGWLRQPPGKALEWLALIYWDDDKRYSPSLKSRLTISKDTSKNQVVLKMTNIDPVDTATYYCAHHSISTIFDHWGQGTLVTVSS
VL: QSALTQPASVSGSPGQSITISCTATSSDVGDYNYVSWYQQHPGKAPKLMIFEVSDRPSGISNRFSGSKSGNTASLTISGLQAEDEADYYCSSYTTSSAVFGGGTKLTVLG
B9: mAb 1585 (antibody, V domains shown)
VH: QVQLVESGGGVVQPGRSLRLSCAASGFTFSRFTLHWVRQAPGKGLEWVAVISYDGSNKYYADSVKGRFTISRDNSKSTLYLQMNSLRAEDTGVYYCARDPSTVTGYFDYWGQGTLVTVSS
VL: SYVLTQPPSVSVAPGKTAKISCGGDSIGSKSVHWYQQKPGQAPVLVIYYDNDRPSGIPERFSGSNSGNTATLTISRVEAGDEADYYCQVWDIGVVFGGGTKLTVLG
B10: mAb 1444 (antibody, V domains shown)
VH: QVQLVQSGAEVKKPGASVKVSCKASGYTFTAYYMHWVRQAPGQGLEWMGWINPNSDDTNYAQKFQGRVTMTRDTSISTAYMELSRLRSDDTAVYYCAREEGVFTIGDRYFDLWGRGTLVSVSS
VL: QTVVTQEPSFSVSPGGTVTLTCGLSSGSVSTSYYPSWYQQTPGQAPRTLIYNTNTRSSGVPDRFSGSILGNKAALTITGAQADDESDYYCVLYMGSGIWVFGGGTKLTVLG
B11: antibody 260 (antibody, V domains shown)
VH: EVQLVESGGGLVQPGRSLRLSCAASGFTFDYYAMHWVRQAPGKGLEWVSGISWNSGTIGYADSVKGRFTISRDNAKNSLYLQMNSLRAEDTALYYCAKDSRPSGRYYYGMDVWGQGTTVTVSS
VL: not shown
B12: antibody 294 (antibody, V domains shown)
VH: EVQLVESGGGLVQPGGSLRLSCAASGFTVSSNYMNWVRQAPGKGLEWVSVIYSGGSTYYADSVKGRFTISRDNSKNTLYLQMNSLRAEDTAVYYCARDLGPSGMDVWGQGTTVTVSS
VL: DIQMTQSPSSVSASVGDRVTITCRASQGISSWLAWYQQKPGKAPKLLIYAASSLQSGVPSRFSGSGSGTDFTLTISSLQPEDFATYYCQQANSFPLFGGGTKVEIK
B13: antibody 288 (antibody, V domains shown)
VH: EVQLVESGGGLVQPGGSLRLSCAASGFTFSSYDMHWVRQATGKGLEWVSAIGTAGDTYYPGSVKGRFTISRENAKNSLYLQMNSLRAGDTAVYYCARGANRDYDILTGYYSYYYYGMDVWGQGTTVTVSS
VL: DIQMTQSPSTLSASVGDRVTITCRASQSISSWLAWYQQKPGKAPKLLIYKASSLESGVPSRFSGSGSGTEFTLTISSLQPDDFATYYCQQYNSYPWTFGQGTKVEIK

Experiments:
[1] = target: SARS-CoV-2 Spike (S) protein, wild type, full length (SARS-CoV-2, UniProt P0DTC2 14-1208)
[2] = target: SARS-CoV full length Spike (SARS-CoV, UniProt P59594 14-1190)
MERS full length Spike = target: T1, MERS full length Spike
HKU1 full length Spike = target: T2, HKU1 full length Spike

Binder | bead binding signal (fold over isotype) [1] [fold over isotype] | median fluorescence intensity, fold over isotype control [2] [fold over isotype] | median fluorescence intensity, fold over isotype control (MERS full length Spike) [fold over isotype] | median fluorescence intensity, fold over isotype control (HKU1 full length Spike) [fold over isotype]
B1 | 473 | – | – | –
B2 | 341 | – | – | –
B3 | 599 | – | – | –
B4 | – | 1.08 | 0.93 | 1.05
B5 | – | 0.99 | 0.95 | 0.97
B6 | 865 | – | – | –
B7 | 721 | – | – | –
B8 | – | 0.97 | 0.91 | 0.94
B9 | – | 25.8 | 0.94 | 0.88
B10 | – | 1.03 | 0.98 | 0.98
B11 | 724 | – | – | –
B12 | 1230 | – | – | –
B13 | 495 | – | – | –

From patent US20220356229A1 (published 2022)
